These binders were tested against T1, FcγRIa extracellular domain with C-terminal His tag (human, UniProt P12314 16-292) (assay: SPR Biacore, antibody captured, FcγRIa analyte; vs GpH7-B3/GpL16-k0 = 100).
T1 construct: extracellular domain; Expressed in FreeStyle293 cells; analyte in Biacore; also called FcgRI; FcgRIa
T1 sequence (P12314 16-292): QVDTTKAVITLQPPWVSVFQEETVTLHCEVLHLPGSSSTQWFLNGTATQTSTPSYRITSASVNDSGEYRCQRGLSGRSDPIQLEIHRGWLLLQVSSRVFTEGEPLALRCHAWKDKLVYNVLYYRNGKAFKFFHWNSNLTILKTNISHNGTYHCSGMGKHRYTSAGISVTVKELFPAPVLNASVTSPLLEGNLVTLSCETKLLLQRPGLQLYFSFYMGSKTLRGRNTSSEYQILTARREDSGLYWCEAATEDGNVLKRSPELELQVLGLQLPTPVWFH

| Binder | Ho/Con_1a |
| --- | --- |
| GpH7-B3 variant P271_13S/GpL16-k0 (Ho Ab) (antibody, human IgG1, kappa, Ho Ab: alteration in both H chains) heavy: not shown light: DIVMTQSPLSLPVTPGEPASISCQASESLVHSNRNTYLHWYLQKPGQSPQLLIYKVSNRFSGVPDRFSGSGSGTDFTLKISRVEAEDVGVYYCSQNTHVPPTFGQGTKVEIERTVAAPSVFIFPPSDEQLKSGTASVVCLLNNFYPREAKVQWKVDNALQSGNSQESVTEQDSKDSTYSLSSTLTLSKADYEKHKVYACEVTHQGLSSPVTKSFNRGEC | 101 relative (control = 100) |
| GpH7-B3 variant Q295_03V/GpL16-k0 (Ho Ab) (antibody, human IgG1, kappa, Ho Ab: alteration in both H chains) heavy: not shown light: DIVMTQSPLSLPVTPGEPASISCQASESLVHSNRNTYLHWYLQKPGQSPQLLIYKVSNRFSGVPDRFSGSGSGTDFTLKISRVEAEDVGVYYCSQNTHVPPTFGQGTKVEIERTVAAPSVFIFPPSDEQLKSGTASVVCLLNNFYPREAKVQWKVDNALQSGNSQESVTEQDSKDSTYSLSSTLTLSKADYEKHKVYACEVTHQGLSSPVTKSFNRGEC | 102 relative (control = 100) |
| GpH7-B3 variant Q295_02A/GpL16-k0 (Ho Ab) (antibody, human IgG1, kappa, Ho Ab: alteration in both H chains) heavy: not shown light: DIVMTQSPLSLPVTPGEPASISCQASESLVHSNRNTYLHWYLQKPGQSPQLLIYKVSNRFSGVPDRFSGSGSGTDFTLKISRVEAEDVGVYYCSQNTHVPPTFGQGTKVEIERTVAAPSVFIFPPSDEQLKSGTASVVCLLNNFYPREAKVQWKVDNALQSGNSQESVTEQDSKDSTYSLSSTLTLSKADYEKHKVYACEVTHQGLSSPVTKSFNRGEC | 104 relative (control = 100) |
| GpH7-B3 variant P271_20W/GpL16-k0 (Ho Ab) (antibody, human IgG1, kappa, Ho Ab: alteration in both H chains) heavy: not shown light: DIVMTQSPLSLPVTPGEPASISCQASESLVHSNRNTYLHWYLQKPGQSPQLLIYKVSNRFSGVPDRFSGSGSGTDFTLKISRVEAEDVGVYYCSQNTHVPPTFGQGTKVEIERTVAAPSVFIFPPSDEQLKSGTASVVCLLNNFYPREAKVQWKVDNALQSGNSQESVTEQDSKDSTYSLSSTLTLSKADYEKHKVYACEVTHQGLSSPVTKSFNRGEC | 102 relative (control = 100) |

Further lines, results first:

| Ho/Con_1a | Binder |
| --- | --- |
| 102 relative (control = 100) | GpH7-B3 variant Q295_14T/GpL16-k0 (Ho Ab) (antibody, human IgG1, kappa, Ho Ab: alteration in both H chains) heavy: not shown light: DIVMTQSPLSLPVTPGEPASISCQASESLVHSNRNTYLHWYLQKPGQSPQLLIYKVSNRFSGVPDRFSGSGSGTDFTLKISRVEAEDVGVYYCSQNTHVPPTFGQGTKVEIERTVAAPSVFIFPPSDEQLKSGTASVVCLLNNFYPREAKVQWKVDNALQSGNSQESVTEQDSKDSTYSLSSTLTLSKADYEKHKVYACEVTHQGLSSPVTKSFNRGEC |
| 101 relative (control = 100) | GpH7-B3 variant Q295_05P/GpL16-k0 (Ho Ab) (antibody, human IgG1, kappa, Ho Ab: alteration in both H chains) heavy: not shown light: DIVMTQSPLSLPVTPGEPASISCQASESLVHSNRNTYLHWYLQKPGQSPQLLIYKVSNRFSGVPDRFSGSGSGTDFTLKISRVEAEDVGVYYCSQNTHVPPTFGQGTKVEIERTVAAPSVFIFPPSDEQLKSGTASVVCLLNNFYPREAKVQWKVDNALQSGNSQESVTEQDSKDSTYSLSSTLTLSKADYEKHKVYACEVTHQGLSSPVTKSFNRGEC |
| 100 relative (control = 100) | GpH7-B3 variant Q295_04F/GpL16-k0 (Ho Ab) (antibody, human IgG1, kappa, Ho Ab: alteration in both H chains) heavy: not shown light: DIVMTQSPLSLPVTPGEPASISCQASESLVHSNRNTYLHWYLQKPGQSPQLLIYKVSNRFSGVPDRFSGSGSGTDFTLKISRVEAEDVGVYYCSQNTHVPPTFGQGTKVEIERTVAAPSVFIFPPSDEQLKSGTASVVCLLNNFYPREAKVQWKVDNALQSGNSQESVTEQDSKDSTYSLSSTLTLSKADYEKHKVYACEVTHQGLSSPVTKSFNRGEC |
| 101 relative (control = 100) | GpH7-B3 variant Q295_07I/GpL16-k0 (Ho Ab) (antibody, human IgG1, kappa, Ho Ab: alteration in both H chains) heavy: not shown light: DIVMTQSPLSLPVTPGEPASISCQASESLVHSNRNTYLHWYLQKPGQSPQLLIYKVSNRFSGVPDRFSGSGSGTDFTLKISRVEAEDVGVYYCSQNTHVPPTFGQGTKVEIERTVAAPSVFIFPPSDEQLKSGTASVVCLLNNFYPREAKVQWKVDNALQSGNSQESVTEQDSKDSTYSLSSTLTLSKADYEKHKVYACEVTHQGLSSPVTKSFNRGEC |
| 101 relative (control = 100) | GpH7-B3 variant Q295_13S/GpL16-k0 (Ho Ab) (antibody, human IgG1, kappa, Ho Ab: alteration in both H chains) heavy: not shown light: DIVMTQSPLSLPVTPGEPASISCQASESLVHSNRNTYLHWYLQKPGQSPQLLIYKVSNRFSGVPDRFSGSGSGTDFTLKISRVEAEDVGVYYCSQNTHVPPTFGQGTKVEIERTVAAPSVFIFPPSDEQLKSGTASVVCLLNNFYPREAKVQWKVDNALQSGNSQESVTEQDSKDSTYSLSSTLTLSKADYEKHKVYACEVTHQGLSSPVTKSFNRGEC |
